# From the supplement of paper PMC10065799, “High-throughput profiling of sequence recognition by tyrosine kinases and SH2 domains using bacterial peptide display” (eLife, 2023)
# Legend:
# SHP2-C SH2 = test: SH2 binding enrichment of the phosphorylated peptide, bacterial display (enrichment ratio); higher = better substrate or ligand; peptides without Tyr show the background
# Grb2 SH2 = Grb2 SH2 (UniProt P62993); test: as above
# c-Src SH2 = test: as above
# Jak2 = Jak2 (UniProt O60674); test: phosphorylation enrichment, bacterial display (enrichment ratio); higher = better substrate or ligand; peptides without Tyr show the background
# Fyn = Fyn (UniProt P06241); test: as above
# Hck = Hck (UniProt P08631); test: as above
# AncSZ = test: as above
# EPHB2 = EPHB2 (UniProt P29323); test: as above
# Fes = Fes (UniProt P07332); test: as above
# FGFR1 = FGFR1 (UniProt P11362); test: as above
# c-Src = test: as above
# FGFR3 = FGFR3 (UniProt P22607); test: as above
# Fer (mouse) = test: as above
# EPHB1 = EPHB1 (UniProt P54762); test: as above
# MERTK = MERTK (UniProt Q12866); test: as above
# c-Abl (mouse) = test: as above
# 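Wherever SH2 binding enrichment of the phosphorylated peptide, bacterial display is given: peptide library displayed on the E. coli surface as eCPX fusions, selected cells deep-sequenced, score is each peptide's frequency after selection divided by its frequency in the input.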
# 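Wherever phosphorylation enrichment, bacterial display is given: 11-residue human phosphosite peptides and single-mutation variants displayed on the E. coli surface, counted by deep sequencing, each peptide's frequency after selection divided by its frequency in the unselected input library; frequency after pTyr selection over input frequency; kinase dosed for 20-30% of maximal phosphorylation in three min.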
# Chain of FGFR1 (P11362 whole entry, looked up): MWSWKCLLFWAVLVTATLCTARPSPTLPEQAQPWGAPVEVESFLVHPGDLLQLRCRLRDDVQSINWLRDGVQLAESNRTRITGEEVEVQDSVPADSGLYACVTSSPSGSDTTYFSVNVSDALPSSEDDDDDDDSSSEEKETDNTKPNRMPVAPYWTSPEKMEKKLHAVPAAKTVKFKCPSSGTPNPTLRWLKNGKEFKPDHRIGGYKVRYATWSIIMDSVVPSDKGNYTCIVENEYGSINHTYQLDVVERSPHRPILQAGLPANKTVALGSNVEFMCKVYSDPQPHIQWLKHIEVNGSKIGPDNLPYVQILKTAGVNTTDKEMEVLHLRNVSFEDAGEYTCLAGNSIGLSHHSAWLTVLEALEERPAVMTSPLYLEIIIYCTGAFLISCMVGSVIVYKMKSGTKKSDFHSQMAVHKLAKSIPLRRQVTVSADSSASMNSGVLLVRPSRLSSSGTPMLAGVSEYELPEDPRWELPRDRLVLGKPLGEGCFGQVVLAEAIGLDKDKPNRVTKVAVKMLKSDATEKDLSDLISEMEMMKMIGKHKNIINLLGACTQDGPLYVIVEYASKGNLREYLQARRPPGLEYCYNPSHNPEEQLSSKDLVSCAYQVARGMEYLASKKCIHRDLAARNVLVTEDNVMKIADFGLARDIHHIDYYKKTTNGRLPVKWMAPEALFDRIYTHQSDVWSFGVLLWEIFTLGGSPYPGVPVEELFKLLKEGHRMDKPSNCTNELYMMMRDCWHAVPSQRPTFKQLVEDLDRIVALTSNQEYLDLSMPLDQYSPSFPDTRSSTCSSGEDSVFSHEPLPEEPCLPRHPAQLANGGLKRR
# Chain of Grb2 SH2 (P62993 whole entry, looked up): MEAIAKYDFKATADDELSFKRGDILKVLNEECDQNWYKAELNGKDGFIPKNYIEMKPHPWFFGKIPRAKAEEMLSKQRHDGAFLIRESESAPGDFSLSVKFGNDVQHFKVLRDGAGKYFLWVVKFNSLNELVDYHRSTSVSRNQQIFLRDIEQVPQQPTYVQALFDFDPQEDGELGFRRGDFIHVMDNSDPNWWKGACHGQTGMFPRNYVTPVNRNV
# Chain of Jak2 (O60674 whole entry, looked up): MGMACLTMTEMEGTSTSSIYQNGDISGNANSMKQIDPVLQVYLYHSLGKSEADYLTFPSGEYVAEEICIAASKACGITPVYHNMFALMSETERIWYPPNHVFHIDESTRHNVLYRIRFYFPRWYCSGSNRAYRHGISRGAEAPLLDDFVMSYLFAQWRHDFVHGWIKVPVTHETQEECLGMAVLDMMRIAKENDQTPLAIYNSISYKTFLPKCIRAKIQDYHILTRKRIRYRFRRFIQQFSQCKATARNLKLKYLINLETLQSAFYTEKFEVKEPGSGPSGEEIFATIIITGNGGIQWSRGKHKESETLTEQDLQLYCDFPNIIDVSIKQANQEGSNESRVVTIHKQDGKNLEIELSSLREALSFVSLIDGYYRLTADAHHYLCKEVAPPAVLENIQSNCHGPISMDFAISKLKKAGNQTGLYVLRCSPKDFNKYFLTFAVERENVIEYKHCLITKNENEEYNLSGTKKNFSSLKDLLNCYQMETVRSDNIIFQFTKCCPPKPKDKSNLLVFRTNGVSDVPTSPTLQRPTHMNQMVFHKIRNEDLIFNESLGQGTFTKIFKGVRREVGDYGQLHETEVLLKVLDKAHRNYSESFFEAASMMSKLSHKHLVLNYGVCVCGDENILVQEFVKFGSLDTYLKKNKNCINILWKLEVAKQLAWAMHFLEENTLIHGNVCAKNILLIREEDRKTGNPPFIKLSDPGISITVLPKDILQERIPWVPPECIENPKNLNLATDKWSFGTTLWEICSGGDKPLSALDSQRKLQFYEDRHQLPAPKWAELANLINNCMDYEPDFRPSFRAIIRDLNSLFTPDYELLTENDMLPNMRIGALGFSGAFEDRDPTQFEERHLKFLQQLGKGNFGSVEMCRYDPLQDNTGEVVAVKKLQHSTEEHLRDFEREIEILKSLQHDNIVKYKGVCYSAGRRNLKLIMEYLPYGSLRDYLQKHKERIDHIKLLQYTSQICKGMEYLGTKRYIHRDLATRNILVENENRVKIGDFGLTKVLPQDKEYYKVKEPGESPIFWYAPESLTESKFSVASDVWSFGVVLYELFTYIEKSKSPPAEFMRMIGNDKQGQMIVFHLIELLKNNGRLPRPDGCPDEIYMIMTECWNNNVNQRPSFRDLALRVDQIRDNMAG
# Chain of EPHB2 (P29323 whole entry, looked up): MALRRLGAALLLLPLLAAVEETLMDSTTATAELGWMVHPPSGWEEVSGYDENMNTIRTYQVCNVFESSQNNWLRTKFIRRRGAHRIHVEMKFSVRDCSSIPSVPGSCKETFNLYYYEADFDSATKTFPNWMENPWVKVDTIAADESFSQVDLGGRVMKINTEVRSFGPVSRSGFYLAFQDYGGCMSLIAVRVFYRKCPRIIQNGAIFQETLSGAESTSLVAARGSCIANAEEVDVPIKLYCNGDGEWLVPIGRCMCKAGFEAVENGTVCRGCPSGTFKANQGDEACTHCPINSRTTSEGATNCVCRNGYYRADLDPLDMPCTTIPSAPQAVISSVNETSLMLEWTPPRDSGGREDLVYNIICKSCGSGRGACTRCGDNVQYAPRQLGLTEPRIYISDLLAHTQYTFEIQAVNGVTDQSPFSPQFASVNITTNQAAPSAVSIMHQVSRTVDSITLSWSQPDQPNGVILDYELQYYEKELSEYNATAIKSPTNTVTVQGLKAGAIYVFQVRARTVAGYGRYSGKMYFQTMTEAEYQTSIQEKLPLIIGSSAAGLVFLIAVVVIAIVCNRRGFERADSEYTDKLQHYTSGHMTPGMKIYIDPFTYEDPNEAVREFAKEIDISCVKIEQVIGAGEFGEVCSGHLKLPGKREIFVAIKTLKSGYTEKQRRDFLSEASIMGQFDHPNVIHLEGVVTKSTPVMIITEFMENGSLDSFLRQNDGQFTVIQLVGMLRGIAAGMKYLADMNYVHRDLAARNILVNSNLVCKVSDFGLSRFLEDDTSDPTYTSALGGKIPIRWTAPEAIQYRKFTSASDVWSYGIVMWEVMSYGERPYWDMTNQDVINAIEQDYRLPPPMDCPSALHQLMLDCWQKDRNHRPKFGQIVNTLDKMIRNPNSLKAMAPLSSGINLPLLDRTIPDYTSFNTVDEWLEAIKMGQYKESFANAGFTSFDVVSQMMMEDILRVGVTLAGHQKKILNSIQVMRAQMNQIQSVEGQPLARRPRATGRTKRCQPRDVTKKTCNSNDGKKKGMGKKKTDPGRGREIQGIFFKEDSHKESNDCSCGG
# Chain of Fes (P07332 whole entry, looked up): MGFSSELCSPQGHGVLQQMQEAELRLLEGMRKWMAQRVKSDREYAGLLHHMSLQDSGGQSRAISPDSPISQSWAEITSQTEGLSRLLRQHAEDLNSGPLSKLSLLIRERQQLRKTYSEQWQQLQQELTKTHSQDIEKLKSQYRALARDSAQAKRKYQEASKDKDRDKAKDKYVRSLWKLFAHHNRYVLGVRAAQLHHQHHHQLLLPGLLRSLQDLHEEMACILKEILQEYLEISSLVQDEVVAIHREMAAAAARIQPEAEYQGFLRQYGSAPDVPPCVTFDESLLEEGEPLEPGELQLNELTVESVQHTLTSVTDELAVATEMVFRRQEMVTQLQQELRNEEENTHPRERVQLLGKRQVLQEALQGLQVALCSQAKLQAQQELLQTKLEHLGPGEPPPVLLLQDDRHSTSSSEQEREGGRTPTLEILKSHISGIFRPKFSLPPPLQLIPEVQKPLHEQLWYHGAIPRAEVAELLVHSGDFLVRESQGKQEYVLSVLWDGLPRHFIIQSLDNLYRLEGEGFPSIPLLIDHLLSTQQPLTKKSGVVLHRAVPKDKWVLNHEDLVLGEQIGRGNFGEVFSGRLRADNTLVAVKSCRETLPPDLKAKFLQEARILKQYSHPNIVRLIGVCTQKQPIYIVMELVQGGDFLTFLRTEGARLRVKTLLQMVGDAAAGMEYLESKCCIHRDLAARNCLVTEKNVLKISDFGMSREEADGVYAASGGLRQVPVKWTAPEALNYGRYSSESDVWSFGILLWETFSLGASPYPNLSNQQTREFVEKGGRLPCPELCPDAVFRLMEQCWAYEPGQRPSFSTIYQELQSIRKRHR
# Chain of MERTK (Q12866 whole entry, looked up): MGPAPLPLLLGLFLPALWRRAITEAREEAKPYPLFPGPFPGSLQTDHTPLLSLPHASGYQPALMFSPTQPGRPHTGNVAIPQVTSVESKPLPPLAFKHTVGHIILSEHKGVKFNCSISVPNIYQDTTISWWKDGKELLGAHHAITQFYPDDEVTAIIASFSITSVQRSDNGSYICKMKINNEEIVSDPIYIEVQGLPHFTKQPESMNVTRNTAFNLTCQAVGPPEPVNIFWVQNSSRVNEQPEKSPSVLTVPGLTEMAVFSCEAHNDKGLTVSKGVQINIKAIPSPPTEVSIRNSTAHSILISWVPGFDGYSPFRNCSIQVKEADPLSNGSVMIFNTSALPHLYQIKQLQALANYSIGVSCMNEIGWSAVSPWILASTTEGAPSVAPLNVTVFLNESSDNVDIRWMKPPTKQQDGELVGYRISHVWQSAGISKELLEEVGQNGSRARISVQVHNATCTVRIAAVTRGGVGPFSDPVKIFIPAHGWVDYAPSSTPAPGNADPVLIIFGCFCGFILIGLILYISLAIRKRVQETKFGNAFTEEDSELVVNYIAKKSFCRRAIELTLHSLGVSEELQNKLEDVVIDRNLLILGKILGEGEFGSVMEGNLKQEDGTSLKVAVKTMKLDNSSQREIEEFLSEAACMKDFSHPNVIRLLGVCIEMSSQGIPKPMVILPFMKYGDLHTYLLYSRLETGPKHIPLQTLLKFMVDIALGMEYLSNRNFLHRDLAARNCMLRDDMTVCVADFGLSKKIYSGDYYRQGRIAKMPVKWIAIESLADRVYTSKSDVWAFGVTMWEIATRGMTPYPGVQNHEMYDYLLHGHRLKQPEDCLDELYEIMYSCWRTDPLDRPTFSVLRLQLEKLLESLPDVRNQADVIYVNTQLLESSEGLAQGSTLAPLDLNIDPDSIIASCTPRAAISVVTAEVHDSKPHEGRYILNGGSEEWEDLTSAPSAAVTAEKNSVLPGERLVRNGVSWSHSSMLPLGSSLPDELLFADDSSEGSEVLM
Sequence,SH2 binding enrichment (SHP2-C SH2),SH2 binding enrichment (Grb2 SH2),SH2 binding enrichment (c-Src SH2),phosphorylation enrichment (Jak2),phosphorylation enrichment (Fyn),phosphorylation enrichment (Hck),phosphorylation enrichment (AncSZ),phosphorylation enrichment (EPHB2),phosphorylation enrichment (Fes),phosphorylation enrichment (FGFR1),phosphorylation enrichment (c-Src),phosphorylation enrichment (FGFR3),phosphorylation enrichment (Fer (mouse)),phosphorylation enrichment (EPHB1),phosphorylation enrichment (MERTK),phosphorylation enrichment (c-Abl (mouse))
IDGLEYLHSPG [STK11_Y166_Q170P],0.558,0.819,0.491,0.746,0.44,0.454,0.931,0.584,0.69,0.467,0.37,0.543,0.426,0.377,0.431,0.5
PAKPRYRARQR [KCNJ11_Y26_E23K],0.399,0.654,0.418,0.955,0.813,0.819,1.08,1.06,0.877,0.671,0.763,0.642,0.767,0.774,0.935,0.818
IPGMEYLVSII [TNC_Y1775_V1773M],1.15,0.991,0.641,1.11,0.612,0.522,1.44,0.855,1.41,0.72,0.583,0.889,0.722,0.65,0.565,0.825
WGLRSYYETSK [MAGED2_Y448],0.775,0.809,1.03,0.972,0.4,0.448,0.958,0.549,1.12,0.508,0.298,0.733,0.464,0.754,0.298,0.661
VKFLGYPPPEI [KDR_Y357_A352V_YF],0.852,0.809,0.523,0.744,0.443,0.369,0.692,0.618,0.974,0.398,0.371,0.555,0.427,0.452,0.402,0.688
FADIAYSYRHG [PAH_Y166_N167S],0.784,0.822,0.496,0.727,0.512,0.568,0.726,0.418,0.658,0.562,0.714,0.508,0.453,0.423,0.46,0.63
IKKLIYVYLVI [JAGN1_Y42_H44Y],1.06,1.4,0.612,0.817,0.412,0.43,0.873,0.411,0.97,0.351,0.475,0.452,0.323,0.466,0.427,0.955
WVYNHYRCIIW [BRCA2_Y2624_W2626C],1,0.94,0.58,1.4,0.515,0.538,1.28,0.645,1.63,0.562,0.481,0.891,0.569,0.806,0.659,1.18
TTKGSYSLFVR [HCK_Y180_S183Y_YF],0.837,1.08,0.552,0.742,0.418,0.441,1,0.846,1.09,0.383,0.419,0.57,0.43,0.351,0.45,0.546
NDKLCYEVSSP [CDH13_Y66_R65C],0.498,0.569,0.413,1,0.562,0.548,1.52,0.724,1.53,0.514,0.596,0.876,0.883,0.677,0.394,0.837
EKEKKYMLPLD [DNM2_Y563],0.841,0.902,0.534,0.849,0.625,0.591,0.885,0.473,0.796,0.412,0.452,0.466,0.489,0.526,0.449,0.589
TTKAKYKTPTY [PLD2_Y573],0.848,0.906,0.541,0.488,0.393,0.443,0.473,0.313,0.501,0.287,0.406,0.32,0.336,0.328,0.362,0.539
SGLDSYVRSLP [TRAPPC1_Y133_R129G],0.74,0.799,0.492,0.443,0.424,0.438,0.618,0.581,0.651,0.453,0.359,0.48,0.445,0.379,0.402,0.426
KNKNRYKNILP [PTPN11_Y279],0.888,1.05,0.637,0.984,0.644,0.851,0.78,0.665,1.03,0.598,0.941,0.889,0.703,0.601,0.799,0.877
EARRVYRDIIH [ALDH5A1_Y175_G176R],0.75,0.928,0.513,0.475,0.352,0.325,0.549,0.386,0.547,0.357,0.41,0.415,0.305,0.318,0.403,0.528
EKSREYDRLYE [PIK3R1_Y463],0.612,0.966,16.9,0.828,0.708,0.944,1.32,0.68,1.09,0.61,0.587,0.706,0.711,0.663,0.597,0.938
LDLSFYPTSSS [EMD_Y182_YF],0.686,0.698,0.417,0.976,0.968,0.89,1.42,0.904,1.77,0.991,0.404,0.902,0.799,1.33,0.596,1.69
